This note sets out measurements from the supplement of paper PMC10567573.

To fix the notation:
B1: CSTF3 (parent)
chain: YVPEKVKKAEKKLEENPYDLDAWS
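Note: lentivirally expressed fusions sorted by FACS into six bins by GFP to DsRed ratio, PSI derived from sequencing read proportions per bin multiplied by bin number.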

The variants in this series derive from B1. Description: protein stability index of a GFP-peptide fusion (GPS, HEK-293T) (PSI 1-6); higher = more stable. Particulars: c terminus: a fixed tail appended.
Take RVPEKVKKAEKKLEENPYDLDAWS [Y1R]: the protein stability index is 5.17.

With GVPEKVKKAEKKLEENPYDLDAWS [Y1G], the protein stability index stood at 5.31.

With KVPEKVKKAEKKLEENPYDLDAWS [Y1K], the protein stability index was determined as 5.08.

On to TVPEKVKKAEKKLEENPYDLDAWS [Y1T], for which the protein stability index came out at 4.88.

For the variant NVPEKVKKAEKKLEENPYDLDAWS [Y1N], the protein stability index was determined as 5.14.

With EVPEKVKKAEKKLEENPYDLDAWS [Y1E], the protein stability index is 5.59.

For the variant MVPEKVKKAEKKLEENPYDLDAWS [Y1M], the protein stability index came out at 4.81.

For the variant AVPEKVKKAEKKLEENPYDLDAWS [Y1A], the protein stability index was 5.5.

FVPEKVKKAEKKLEENPYDLDAWS [Y1F]: the protein stability index turned out to be 2.56.

PVPEKVKKAEKKLEENPYDLDAWS [Y1P]: the protein stability index was 5.24.

For the variant LVPEKVKKAEKKLEENPYDLDAWS [Y1L], the protein stability index stood at 4.43.

As for HVPEKVKKAEKKLEENPYDLDAWS [Y1H], the protein stability index came to 3.9.

As for IVPEKVKKAEKKLEENPYDLDAWS [Y1I], the protein stability index was determined as 4.63.

With CVPEKVKKAEKKLEENPYDLDAWS [Y1C], the protein stability index came out at 4.97.

Regarding VVPEKVKKAEKKLEENPYDLDAWS [Y1V], the protein stability index turned out to be 4.97.

As to WVPEKVKKAEKKLEENPYDLDAWS [Y1W], the protein stability index amounted to 4.24.

As to DVPEKVKKAEKKLEENPYDLDAWS [Y1D], the protein stability index is 5.2.

Regarding QVPEKVKKAEKKLEENPYDLDAWS [Y1Q], the protein stability index was 5.31.

For SVPEKVKKAEKKLEENPYDLDAWS [Y1S], the protein stability index worked out at 5.23.

As to YVPEKVKMAEKKLEENPYDLDAWS [K8M], the protein stability index is 2.97.

For the variant YVPEKVKIAEKKLEENPYDLDAWS [K8I], the protein stability index came to 3.65.

Consider YVPEKVKFAEKKLEENPYDLDAWS [K8F], for which the protein stability index is 3.78.

As to YVPEKVKYAEKKLEENPYDLDAWS [K8Y], the protein stability index was 1.72.

Turning to YVPEKVKVAEKKLEENPYDLDAWS [K8V], the protein stability index stood at 2.21.

On to YVPEKVKHAEKKLEENPYDLDAWS [K8H], for which the protein stability index was determined as 2.27.

For the variant YVPEKVKCAEKKLEENPYDLDAWS [K8C], the protein stability index is 2.34.

YVPEKVKTAEKKLEENPYDLDAWS [K8T]: the protein stability index was 2.37.

As to YVPEKVKNAEKKLEENPYDLDAWS [K8N], the protein stability index was found to be 2.92.

Regarding YVPEKVKSAEKKLEENPYDLDAWS [K8S], the protein stability index was found to be 3.26.

Take YVPEKVKEAEKKLEENPYDLDAWS [K8E]: the protein stability index worked out at 2.9.

For the variant YVPEKVKQAEKKLEENPYDLDAWS [K8Q], the protein stability index worked out at 3.12.

Take YVPEKVKAAEKKLEENPYDLDAWS [K8A]: the protein stability index was 3.58.

For the variant YVPEKVKRAEKKLEENPYDLDAWS [K8R], the protein stability index was found to be 2.54.

As for YVPEKVKDAEKKLEENPYDLDAWS [K8D], the protein stability index amounted to 2.48.

Turning to YVPEKVKWAEKKLEENPYDLDAWS [K8W], the protein stability index was found to be 3.37.

Turning to YVPEKEKKAEKKLEENPYDLDAWS [V6E], the protein stability index worked out at 2.

In the case of YVPEKNKKAEKKLEENPYDLDAWS [V6N], the protein stability index was 2.72.

Consider YVPEKYKKAEKKLEENPYDLDAWS [V6Y], for which the protein stability index is 2.75.

On to YVPEKMKKAEKKLEENPYDLDAWS [V6M], for which the protein stability index amounted to 2.66.

Take YVPEKIKKAEKKLEENPYDLDAWS [V6I]: the protein stability index worked out at 3.77.

In the case of YVPEKPKKAEKKLEENPYDLDAWS [V6P], the protein stability index is 1.26.

As for YVPEKGKKAEKKLEENPYDLDAWS [V6G], the protein stability index stood at 2.04.

Consider YVPEKRKKAEKKLEENPYDLDAWS [V6R], for which the protein stability index came out at 1.35.

Turning to YVPEKTKKAEKKLEENPYDLDAWS [V6T], the protein stability index came to 1.58.

With YVPEKHKKAEKKLEENPYDLDAWS [V6H], the protein stability index is 2.04.

Turning to YVPEKWKKAEKKLEENPYDLDAWS [V6W], the protein stability index came to 2.57.

As to YVPEKSKKAEKKLEENPYDLDAWS [V6S], the protein stability index was determined as 2.15.

With YVPEKDKKAEKKLEENPYDLDAWS [V6D], the protein stability index turned out to be 2.22.

Turning to YVPEKQKKAEKKLEENPYDLDAWS [V6Q], the protein stability index came out at 2.35.

As to YGPEKVKKAEKKLEENPYDLDAWS [V2G], the protein stability index was 4.5.

Consider YYPEKVKKAEKKLEENPYDLDAWS [V2Y], for which the protein stability index worked out at 4.37.

YTPEKVKKAEKKLEENPYDLDAWS [V2T]: the protein stability index turned out to be 3.18.

As for YKPEKVKKAEKKLEENPYDLDAWS [V2K], the protein stability index came out at 4.25.

Take YCPEKVKKAEKKLEENPYDLDAWS [V2C]: the protein stability index came out at 2.32.

Regarding YDPEKVKKAEKKLEENPYDLDAWS [V2D], the protein stability index amounted to 4.2.

With YRPEKVKKAEKKLEENPYDLDAWS [V2R], the protein stability index is 4.48.

Consider YNPEKVKKAEKKLEENPYDLDAWS [V2N], for which the protein stability index came out at 4.47.

As to YHPEKVKKAEKKLEENPYDLDAWS [V2H], the protein stability index is 2.25.

On to YSPEKVKKAEKKLEENPYDLDAWS [V2S], for which the protein stability index is 4.67.

Consider YQPEKVKKAEKKLEENPYDLDAWS [V2Q], for which the protein stability index stood at 4.07.

As to YIPEKVKKAEKKLEENPYDLDAWS [V2I], the protein stability index is 2.33.

On to YLPEKVKKAEKKLEENPYDLDAWS [V2L], for which the protein stability index is 4.51.

Consider YPPEKVKKAEKKLEENPYDLDAWS [V2P], for which the protein stability index worked out at 3.87.

Regarding YWPEKVKKAEKKLEENPYDLDAWS [V2W], the protein stability index worked out at 3.94.

Regarding YEPEKVKKAEKKLEENPYDLDAWS [V2E], the protein stability index was found to be 4.84.

With YMPEKVKKAEKKLEENPYDLDAWS [V2M], the protein stability index was found to be 3.92.

Consider YFPEKVKKAEKKLEENPYDLDAWS [V2F], for which the protein stability index came out at 4.31.

On to YAPEKVKKAEKKLEENPYDLDAWS [V2A], for which the protein stability index was 1.92.

Consider YVPEKVDKAEKKLEENPYDLDAWS [K7D], for which the protein stability index stood at 2.54.

YVPEKVAKAEKKLEENPYDLDAWS [K7A]: the protein stability index came to 2.17.

As for YVPEKVTKAEKKLEENPYDLDAWS [K7T], the protein stability index is 2.94.

For the variant YVPEKVLKAEKKLEENPYDLDAWS [K7L], the protein stability index stood at 3.11.

In the case of YVPEKVIKAEKKLEENPYDLDAWS [K7I], the protein stability index worked out at 2.17.

Consider YVPEKVEKAEKKLEENPYDLDAWS [K7E], for which the protein stability index was 2.56.

On to YVPEKVFKAEKKLEENPYDLDAWS [K7F], for which the protein stability index stood at 2.26.

Turning to YVPEKVGKAEKKLEENPYDLDAWS [K7G], the protein stability index was 1.91.

For the variant YVPEKVHKAEKKLEENPYDLDAWS [K7H], the protein stability index stood at 3.08.

With YVPEKVQKAEKKLEENPYDLDAWS [K7Q], the protein stability index worked out at 2.

With YVPEKVMKAEKKLEENPYDLDAWS [K7M], the protein stability index was found to be 1.52.

YVPEKVNKAEKKLEENPYDLDAWS [K7N]: the protein stability index worked out at 3.83.

With YVPEKVSKAEKKLEENPYDLDAWS [K7S], the protein stability index worked out at 2.47.

Turning to YVPEKVVKAEKKLEENPYDLDAWS [K7V], the protein stability index is 1.91.

Consider YVPEKVYKAEKKLEENPYDLDAWS [K7Y], for which the protein stability index turned out to be 2.48.

YVPEKVPKAEKKLEENPYDLDAWS [K7P]: the protein stability index came out at 3.13.

For YVPEKVCKAEKKLEENPYDLDAWS [K7C], the protein stability index stood at 2.12.

With YVPEKVRKAEKKLEENPYDLDAWS [K7R], the protein stability index was found to be 2.73.

On to YVPEKVWKAEKKLEENPYDLDAWS [K7W], for which the protein stability index stood at 2.89.

Regarding YVPEKVKKAENKLEENPYDLDAWS [K11N], the protein stability index worked out at 2.67.

With YVPEKVKKAEMKLEENPYDLDAWS [K11M], the protein stability index was found to be 2.42.

On to YVPEKVKKAEIKLEENPYDLDAWS [K11I], for which the protein stability index is 3.43.

YVPEKVKKAECKLEENPYDLDAWS [K11C]: the protein stability index came to 2.65.

YVPEKVKKAEDKLEENPYDLDAWS [K11D]: the protein stability index was determined as 2.07.

In the case of YVPEKVKKAEEKLEENPYDLDAWS [K11E], the protein stability index came to 2.54.

On to YVPEKVKKAEAKLEENPYDLDAWS [K11A], for which the protein stability index was determined as 2.32.
